Assay results reported in article PMC11148139.
Where two headings read alike, the source gives them in different places.

In the case of LDHA (lactate dehydrogenase A): C163A, the enzymatic_activity (other: S-nitrosylation at C163) was “decreases”.

For LDHA (lactate dehydrogenase A): C293A, the enzymatic_activity (other: S-nitrosylation at C293) was “decreases”.

For “GCH1 (GTP cyclohydrolase I): S81D phosphomimetic”, the other (phosphorylation at S81) was “increases”.

In the case of “LDHA (lactate dehydrogenase A): C163A/C293A (2C-A)”, the localisation_or_trafficking (other: S-nitrosylation at C163) was “decreases” and the localisation_or_trafficking (other: S-nitrosylation at C293) was “decreases”.
